# B1: Nitrate/nitrite sensor protein NarX (Escherichia coli (strain K12)), P0AFA2 (parent)
# chain: MLKRCLSPLTLVNQVALIVLLSTAIGLAGMAVSGWLVQGVQGSAHAINKAGSLRMQSYRLLAAVPLSEKDKPLIKEMEQTAFSAELTRAAERDGQLAQLQGLQDYWRNELIPALMRAQNRETVSADVSQFVAGLDQLVSGFDRTTEMRIETVVLVHRVMAVFMALLLVFTIIWLRARLLQPWRQLLAMASAVSHRDFTQRANISGRNEMAMLGTALNNMSAELAESYAVLEQRVQEKTAGLEHKNQILSFLWQANRRLHSRAPLCERLSPVLNGLQNLTLLRDIELRVYDTDDEENHQEFTCQPDMTCDDKGCQLCPRGVLPVGDRGTTLKWRLADSHTQYGILLATLPQGRHLSHDQQQLVDTLVEQLTATLALDRHQERQQQLIVMEERATIARELHDSIAQSLSCMKMQVSCLQMQGDALPESSRELLSQIRNELNASWAQLRELLTTFRLQLTEPGLRPALEASCEEYSAKFGFPVKLDYQLPPRLVPSHQAIHLLQIAREALSNALKHSQASEVVVTVAQNDNQVKLTVQDNGCGVPENAIRSNHYGMIIMRDRAQSLRGDCRVRRRESGGTEVVVTFIPEKTFTDVQGDTHE
# Variants of: B1
# Settings: with narl_ecoli narL
row,Variant,effect of a mutation on the interaction
1,H399Q;Q404A,disrupting interaction
2,H399Q;Q404H,disrupting interaction
3,H399Q,decreasing interaction
4,H399Q;D400A,decreasing interaction
